Where two headings read alike, the source gives them in different places.
Columns and labels:
[1] = target: Hck (2PA-YEEI) (UniProt P08631); test: SPR; Hck (2PA-YEEI) amine-coupled (EDC/NHS) to a CMD 500 carboxymethyl dextran chip, 6053 RU, BIAcore 2000; Csk, Chk, Chk mutants and chimera as analytes in HBS (10 mM HEPES pH 7.4, 150 mM NaCl, 3.4 mM EDTA, 0.005% Tween 20); global fit to a 1 to 1 model with mass transfer; molecular binding activity from the maximum response
[2] = target: Hck (2PA-YEEI) (UniProt P08631); test: as above; remark: listed apart in the source

Sequence of C-terminal Src kinase (Csk), recombinant (P41240 whole entry): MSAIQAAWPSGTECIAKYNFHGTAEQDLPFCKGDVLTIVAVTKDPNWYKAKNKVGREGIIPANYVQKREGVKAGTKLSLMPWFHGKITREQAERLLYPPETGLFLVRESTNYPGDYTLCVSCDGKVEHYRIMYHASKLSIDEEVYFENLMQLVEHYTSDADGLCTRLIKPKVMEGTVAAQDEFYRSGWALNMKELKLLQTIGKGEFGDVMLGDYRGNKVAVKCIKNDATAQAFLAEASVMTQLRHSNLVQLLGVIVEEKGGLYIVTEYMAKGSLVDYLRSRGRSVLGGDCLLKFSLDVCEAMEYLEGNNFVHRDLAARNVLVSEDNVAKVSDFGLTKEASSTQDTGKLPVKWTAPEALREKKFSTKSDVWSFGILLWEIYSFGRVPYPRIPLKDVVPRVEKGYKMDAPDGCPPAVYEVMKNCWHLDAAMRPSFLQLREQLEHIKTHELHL

| Substance | Kd [1] | Kd [2] | koff [2] | kon [2] | molecular binding activity (MBA) at 2.7 μM Csk ([2]; scale: mol of analyte bound per mol of immobilized Hck) | fold reduction of kon against wild type Chk [2] |
| --- | --- | --- | --- | --- | --- | --- |
| C-terminal Src kinase (Csk), recombinant (from UniProt P41240 1-450) (enzyme) | 13000 nM | 13.1 µM | 0.0077 s⁻¹ | 588 M⁻¹ s⁻¹ | 0.01 |  |
| Chk (K387A) (from UniProt P42679-2 1-508) (enzyme) | 295 nM |  |  |  |  | 3 fold |
| Chk (R382A) (from UniProt P42679-2 1-508) (enzyme) | 227 nM |  |  |  |  | 3 fold |
| Csk-Chk chimera (from UniProt P41240 1-181; P42679 235-482) (enzyme) |  |  | 0.00031 s⁻¹ | 243 M⁻¹ s⁻¹ |  |  |

From article PMC5547543
